In test [1] the target is human TRiC (TCP-1 ring complex), his-tagged, CCT1 tagged with GFP (human) (UniProt P17987). Kind of test: cryo-EM structure; TRiC (2 mg/ml) sequentially incubated with PFD and PhLP2A in 1:2:~1, each 20 min at RT, with 1 mM AMP-PNP; 3D-focused classification.
In test [2] the target is T1, human TRiC subunit CCT3 (human, UniProt P49368 1-545).
T1 construct: TRiC subunit CCT3, human; Subunit of m2, seen only within the TRiC complex; source: High Five insect cells, purified as a subunit of TRiC
T1 sequence: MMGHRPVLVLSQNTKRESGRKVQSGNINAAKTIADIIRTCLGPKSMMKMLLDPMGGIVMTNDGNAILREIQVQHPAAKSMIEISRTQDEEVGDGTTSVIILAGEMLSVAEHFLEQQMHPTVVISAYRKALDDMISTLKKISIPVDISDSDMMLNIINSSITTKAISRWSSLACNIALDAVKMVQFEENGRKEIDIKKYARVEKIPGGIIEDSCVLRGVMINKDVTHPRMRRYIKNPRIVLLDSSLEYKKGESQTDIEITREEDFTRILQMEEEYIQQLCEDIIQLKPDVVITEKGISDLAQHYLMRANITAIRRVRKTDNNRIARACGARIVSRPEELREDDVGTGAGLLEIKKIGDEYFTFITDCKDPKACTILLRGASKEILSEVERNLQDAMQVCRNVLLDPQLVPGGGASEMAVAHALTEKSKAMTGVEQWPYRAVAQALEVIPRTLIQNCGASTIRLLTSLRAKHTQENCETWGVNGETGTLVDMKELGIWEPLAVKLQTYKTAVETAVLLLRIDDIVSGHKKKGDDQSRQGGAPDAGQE
Kind of test: cryo-EM structure; open TRiC (2 mg/ml) with each truncated PhLP2A mutant (TXD, NTD-TXD, TXD-CTD) in 1:2 molar ratio, 20 min at RT. The note with it: both partners purified.

The target in test [3] is human TRiC (TCP-1 ring complex), his-tagged, CCT1 tagged with GFP (human) (UniProt P17987). The experiment in a line: cryo-EM structure; closed TRiC: TRiC (0.8 mg/ml) with each truncated PhLP2A mutant (TXD, NTD-TXD, TXD-CTD) 1:2 for 20 min, then 1 mM ATP, 6 mM NaF, 10 mM MgCl2, 50 mM KCl, 1 h at RT.
The target is the same in test [4]. The experiment in a line: cryo-EM structure; open TRiC (2 mg/ml) with each truncated PhLP2A mutant (TXD, NTD-TXD, TXD-CTD) in 1:2 molar ratio, 20 min at RT.
Test [5] has as its target T2, human TRiC subunit CCT4 (human, UniProt P50991 1-539).
T2 construct: TRiC subunit CCT4, human; Subunit of m2, seen only within the TRiC complex; source: High Five insect cells, purified as a subunit of TRiC
T2 sequence: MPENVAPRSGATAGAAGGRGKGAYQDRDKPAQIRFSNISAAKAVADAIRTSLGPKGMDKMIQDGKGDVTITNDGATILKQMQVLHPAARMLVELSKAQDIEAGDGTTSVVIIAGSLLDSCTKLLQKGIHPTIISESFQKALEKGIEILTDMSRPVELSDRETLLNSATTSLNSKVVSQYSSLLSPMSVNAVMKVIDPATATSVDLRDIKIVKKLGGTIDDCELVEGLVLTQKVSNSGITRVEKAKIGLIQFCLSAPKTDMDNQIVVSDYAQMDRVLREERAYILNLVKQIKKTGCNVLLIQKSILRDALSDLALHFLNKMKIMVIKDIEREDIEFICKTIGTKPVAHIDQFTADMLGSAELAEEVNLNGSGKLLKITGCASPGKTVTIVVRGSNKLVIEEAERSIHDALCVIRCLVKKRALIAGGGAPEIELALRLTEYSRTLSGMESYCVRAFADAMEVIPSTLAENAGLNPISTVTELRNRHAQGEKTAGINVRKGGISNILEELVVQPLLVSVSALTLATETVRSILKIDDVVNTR
The description is as above. The note with it: both partners purified.

In test [6] the target is human TRiC (TCP-1 ring complex), his-tagged, CCT1 tagged with GFP (human) (UniProt P17987). Kind of test: cryo-EM structure; closed TRiC: TRiC (0.8 mg/ml) with PhLP2A 1:4 for 30 min, then 1 mM ATP, 1 mM Al3(NO3)3, 6 mM NaF, 10 mM MgCl2, 50 mM KCl, 1 h at RT.
For test [7] the target is unchanged. Kind of test: native gel or EMSA; native PAGE mobility shift; 0.25 μM open TRiC, PhLP2A 0.01-10 μM, ATPase buffer (30 mM Tris pH 7.4, 120 mM KCl, 5 mM MgCl2, 1 mM DTT), about 30 min at room temperature; apparent Kd; three repetitions. For orientation: In EMSA bound probe runs differently from free probe, usually more slowly.
Test [8] has the same target. Kind of test: native gel or EMSA; competition: unlabeled PhLP2A (0.01-10 μM) added to GFP-TRiC (0.25 μM) pre-incubated with AF-647 labeled PFD (1 μM); Native PAGE 4-16%, in-gel fluorescence.

The values below come from article PMC10837153, “A structural vista of phosducin-like PhLP2A-chaperonin TRiC cooperation during the ATP-driven folding cycle” (Nature Communications, 2024).

As to “human Prefoldin (from UniProt O15212 1-129) (complex)”, the percent of TRiC particles with PFD bound (3D classification) in test [1] is 25%.

B1: PhLP2A TXD-CTD (aa 85–239), NTD truncation (domain or fragment, human, UniProt Q9H2J4 85-239, looked up)
chain: TKLKNKFGEVLEISGKDYVQEVTKAGEGLWVILHLYKQGIPLCALINQHLSGLARKFPDVKFIKAISTTCIPNYPDRNLPTIFVYLEGDIKAQFIGPLVFGGMNLTRDELEWKLSESGAIMTDLEENPKKPIEDVLLSSVRRSVLMKRDSDSEGD
notes: PhLP2A, human, TXD and CTD, aa 85-239; the 5' primer translates to M-KLKNKFG; also called TXT-C term; source: E. coli BL21 Rosetta2 pLysS, purified (nickel resin, SDX200); not shown: His6 (encoded by the 3' primer), C-terminal, kept
B1: the binding result in test [2] was “binds”.

B2: PhLP2A NTD-TXD (aa 1–211), CTD truncation (domain or fragment, human, UniProt Q9H2J4 1-211, looked up)
chain: MQDPNADTEWNDILRKKGILPPKESLKELEEEAEEEQRILQQSVVKTYEDMTLEELEDHEDEFNEEDERAIEMYRRRRLAEWKATKLKNKFGEVLEISGKDYVQEVTKAGEGLWVILHLYKQGIPLCALINQHLSGLARKFPDVKFIKAISTTCIPNYPDRNLPTIFVYLEGDIKAQFIGPLVFGGMNLTRDELEWKLSESGAIMTDLEEN
notes: PhLP2A, human, NTD and TXD, aa 1-211; also called N + TXT fragment; source: E. coli BL21 Rosetta2 pLysS, purified (nickel resin, SDX200); not shown: His6 (encoded by the 3' primer), C-terminal, kept
In test [3], B2 registered a percent of closed TRiC particles with NTD-TXD density in the chamber of 8.25%. For the same molecule, the percent of TRiC particles with NTD-TXD density in the chamber in test [4] came to 19.8%. The binding result in test [5] and in test [2] was “binds” each time.

B3: human PhLP2A (phosducin-like protein 2A), full length (natural protein)
chain: MQDPNADTEWNDILRKKGILPPKESLKELEEEAEEEQRILQQSVVKTYEDMTLEELEDHEDEFNEEDERAIEMYRRRRLAEWKATKLKNKFGEVLEISGKDYVQEVTKAGEGLWVILHLYKQGIPLCALINQHLSGLARKFPDVKFIKAISTTCIPNYPDRNLPTIFVYLEGDIKAQFIGPLVFGGMNLTRDELEWKLSESGAIMTDLEENPKKPIEDVLLSSVRRSVLMKRDSDSEGD
modifications: AF-568 (Alexa568) label, site not stated, only in the native PAGE mobility shift and competition assays
Regarding B3, in test [6], the percent of closed TRiC particles with PhLP2A in both chambers came out at 9.5% and the percent of closed TRiC particles with PhLP2A in one chamber is 14%. Also, the percent of TRiC particles with PhLP2A bound (3D classification) in test [1] was determined as 22.9%. Further, in test [7], the Kd is 170 nM. The percent of TRiC-bound PFD displaced in test [8] is below 70%.
